Data from paper PMC4935067 (Nature, 2015).

Target: the molecule itself
Test: SEC

B1: Csy3, MBP/6xHis-tagged (natural protein, Pseudomonas aeruginosa, UniProt Q02MM1 1-342, looked up)
chain: MSKPILSTASVLAFERKLDPSDALMSAGAWAQRDASQEWPAVTVREKSVRGTISNRLKTKDRDPAKLDASIQSPNLQTVDVANLPSDADTLKVRFTLRVLGGAGTPSACNDAAYRDKLLQTVATYVNDQGFAELARRYAHNLANARFLWRNRVGAEAVEVRINHIRQGEVARAWRFDALAIGLRDFKADAELDALAELIASGLSGSGHVLLEVVAFARIGDGQEVFPSQELILDKGDKKGQKSKTLYSVRDAAAIHSQKIGNALRTIDTWYPDEDGLGPIAVEPYGSVTSQGKAYRQPKQKLDFYTLLDNWVLRDEAPAVEQQHYVIANLIRGGVFGEAEEK
Question: Does B1 bind?
Answer: binds
